Measured values taken from article PMC7308368, “Structure of the polymerase ε holoenzyme and atomic model of the leading strand replisome” (Nature Communications, 2020).

B1: Dpb2 subunit of S. cerevisiae DNA polymerase ε holoenzyme (natural protein)
chain: MFGSGNVLPVKIQPPLLRPLAYRVLSRKYGLSIKSDGLSALAEFVGTNIGANWRQGPATIKFLEQFAAVWKQQERGLFIDQSGVKEVIQEMKEREKVEWSHEHPIQHEENILGRTDDDENNSDDEMPIAADSSLQNVSLSSPMRQPTERDEYKQPFKPESSKALDWRDYFKVINASQQQRFSYNPHKMQFIFVPNKKQNGLGGIAGFLPDIEDKVQMFLTRYYLTNDRVMRNENFQNSDMFNPLSSMVSLQNELSNTNRQQQSSSMSITPIKNLLGRDAQNFLLLGLLNKNFKGNWSLEDPSGSVEIDISQTIPTQGHYYVPGCMVLVEGIYYSVGNKFHVTSMTLPPGERREITLETIGNLDLLGIHGISNNNFIARLDKDLKIRLHLLEKELTDHKFVILGANLFLDDLKIMTALSKILQKLNDDPPTLLIWQGSFTSVPVFASMSSRNISSSTQFKNNFDALATLLSRFDNLTENTTMIFIPGPNDLWGSMVSLGASGTLPQDPIPSAFTKKINKVCKNVVWSSNPTRIAYLSQEIVIFRDDLSGRFKRHRLEFPFNESEDVYTENDNMMSKDTDIVPIDELVKEPDQLPQKVQETRKLVKTILDQGHLSPFLDSLRPISWDLDHTLTLCPIPSTMVLCDTTSAQFDLTYNGCKVINPGSFIHNRRARYMEYVPSSKKTIQEEIYI
notes: DNA polymerase epsilon subunit B Dpb2, S. cerevisiae; N-terminal helical domain (8-94, disordered), PDE domain (168-209 and 349-689), OB domain (210-348); The holoenzyme was purified on anti-Flag resin; also called Dbp2; B subunit; source: yeast, subunit genes integrated under the Gal1/10 promotor, galactose-induced; purified as holoenzyme (anti-Flag resin, MonoS)
B2: Dpb3 subunit of S. cerevisiae DNA polymerase ε holoenzyme (natural protein)
chain: MSNLVKEKAPVFPISKVKKIAKCDPEYVITSNVAISATAFAAELFVQNLVEESLVLAQLNSKGKTSLRLSLNSIEECVEKRDNFRFLEDAIKQLKKNSALDKKRELNMQPGRSDQEVVIEEPELHEDDGVEEEEEEDEVSEEEEPVHNEELLDDSKDQQNDKSTRSVASLLSRFQYKSALDVGEHSDSSDIEVDHTKSTDP
notes: DNA polymerase epsilon subunit C Dpb3, S. cerevisiae; histone fold domain and C-terminal region; The holoenzyme was purified on anti-Flag resin; source: yeast, subunit genes integrated under the Gal1/10 promotor, galactose-induced; purified as holoenzyme (anti-Flag resin, MonoS)
B3: Dpb4 subunit of S. cerevisiae DNA polymerase ε holoenzyme (natural protein)
chain: MPPKGWRKDAQGNYPTTSYIKEQENITIQDLLFPKSTIVNLAREVPQQSGKKLLINKDASLALQRGATVFVNHLLLFAREIAKSQDKKSCSVDDVLSALDHIGHSALKGPVRDKLDEYQAAVEQRKKEKLDSGEVDADGDIDMGEDKENVPVEKVKEHDEIEEQGDALQDVEESSEKKQKTESQDVETRVQNLEQT
notes: DNA polymerase epsilon subunit D Dpb4, S. cerevisiae; histone fold domain and C-terminal region; The holoenzyme was purified on anti-Flag resin; also called Dbp4; source: yeast, subunit genes integrated under the Gal1/10 promotor, galactose-induced; purified as holoenzyme (anti-Flag resin, MonoS)

Tests used:
[1] = biological target: T1, Pol2 subunit of S. cerevisiae DNA polymerase ε holoenzyme (S. cerevisiae, UniProt P21951 1-2222); test: cryo-EM structure; recombinant Pol ε holoenzyme at ~1.6 mg/ml on C-flat holey carbon grids; rigid-state particles selected; 3.5 Å map; sample buffer 50 mM Hepes pH 7.5, 50 mM KGlu, 200 mM KAcetate, 1 mM DTT, 4 mM MgCl2; details: both partners purified
T1 construct: DNA polymerase epsilon catalytic subunit Pol2, S. cerevisiae; 2222-residue polypeptide with catalytic NTD, NTD-CTD linker (Thr-1186 to Ser-1308) and non-catalytic CTD; The holoenzyme was purified on anti-Flag resin; source: yeast, subunit genes integrated under the Gal1/10 promotor, galactose-induced; purified as holoenzyme (anti-Flag resin, MonoS)
T1 sequence (P21951 whole entry): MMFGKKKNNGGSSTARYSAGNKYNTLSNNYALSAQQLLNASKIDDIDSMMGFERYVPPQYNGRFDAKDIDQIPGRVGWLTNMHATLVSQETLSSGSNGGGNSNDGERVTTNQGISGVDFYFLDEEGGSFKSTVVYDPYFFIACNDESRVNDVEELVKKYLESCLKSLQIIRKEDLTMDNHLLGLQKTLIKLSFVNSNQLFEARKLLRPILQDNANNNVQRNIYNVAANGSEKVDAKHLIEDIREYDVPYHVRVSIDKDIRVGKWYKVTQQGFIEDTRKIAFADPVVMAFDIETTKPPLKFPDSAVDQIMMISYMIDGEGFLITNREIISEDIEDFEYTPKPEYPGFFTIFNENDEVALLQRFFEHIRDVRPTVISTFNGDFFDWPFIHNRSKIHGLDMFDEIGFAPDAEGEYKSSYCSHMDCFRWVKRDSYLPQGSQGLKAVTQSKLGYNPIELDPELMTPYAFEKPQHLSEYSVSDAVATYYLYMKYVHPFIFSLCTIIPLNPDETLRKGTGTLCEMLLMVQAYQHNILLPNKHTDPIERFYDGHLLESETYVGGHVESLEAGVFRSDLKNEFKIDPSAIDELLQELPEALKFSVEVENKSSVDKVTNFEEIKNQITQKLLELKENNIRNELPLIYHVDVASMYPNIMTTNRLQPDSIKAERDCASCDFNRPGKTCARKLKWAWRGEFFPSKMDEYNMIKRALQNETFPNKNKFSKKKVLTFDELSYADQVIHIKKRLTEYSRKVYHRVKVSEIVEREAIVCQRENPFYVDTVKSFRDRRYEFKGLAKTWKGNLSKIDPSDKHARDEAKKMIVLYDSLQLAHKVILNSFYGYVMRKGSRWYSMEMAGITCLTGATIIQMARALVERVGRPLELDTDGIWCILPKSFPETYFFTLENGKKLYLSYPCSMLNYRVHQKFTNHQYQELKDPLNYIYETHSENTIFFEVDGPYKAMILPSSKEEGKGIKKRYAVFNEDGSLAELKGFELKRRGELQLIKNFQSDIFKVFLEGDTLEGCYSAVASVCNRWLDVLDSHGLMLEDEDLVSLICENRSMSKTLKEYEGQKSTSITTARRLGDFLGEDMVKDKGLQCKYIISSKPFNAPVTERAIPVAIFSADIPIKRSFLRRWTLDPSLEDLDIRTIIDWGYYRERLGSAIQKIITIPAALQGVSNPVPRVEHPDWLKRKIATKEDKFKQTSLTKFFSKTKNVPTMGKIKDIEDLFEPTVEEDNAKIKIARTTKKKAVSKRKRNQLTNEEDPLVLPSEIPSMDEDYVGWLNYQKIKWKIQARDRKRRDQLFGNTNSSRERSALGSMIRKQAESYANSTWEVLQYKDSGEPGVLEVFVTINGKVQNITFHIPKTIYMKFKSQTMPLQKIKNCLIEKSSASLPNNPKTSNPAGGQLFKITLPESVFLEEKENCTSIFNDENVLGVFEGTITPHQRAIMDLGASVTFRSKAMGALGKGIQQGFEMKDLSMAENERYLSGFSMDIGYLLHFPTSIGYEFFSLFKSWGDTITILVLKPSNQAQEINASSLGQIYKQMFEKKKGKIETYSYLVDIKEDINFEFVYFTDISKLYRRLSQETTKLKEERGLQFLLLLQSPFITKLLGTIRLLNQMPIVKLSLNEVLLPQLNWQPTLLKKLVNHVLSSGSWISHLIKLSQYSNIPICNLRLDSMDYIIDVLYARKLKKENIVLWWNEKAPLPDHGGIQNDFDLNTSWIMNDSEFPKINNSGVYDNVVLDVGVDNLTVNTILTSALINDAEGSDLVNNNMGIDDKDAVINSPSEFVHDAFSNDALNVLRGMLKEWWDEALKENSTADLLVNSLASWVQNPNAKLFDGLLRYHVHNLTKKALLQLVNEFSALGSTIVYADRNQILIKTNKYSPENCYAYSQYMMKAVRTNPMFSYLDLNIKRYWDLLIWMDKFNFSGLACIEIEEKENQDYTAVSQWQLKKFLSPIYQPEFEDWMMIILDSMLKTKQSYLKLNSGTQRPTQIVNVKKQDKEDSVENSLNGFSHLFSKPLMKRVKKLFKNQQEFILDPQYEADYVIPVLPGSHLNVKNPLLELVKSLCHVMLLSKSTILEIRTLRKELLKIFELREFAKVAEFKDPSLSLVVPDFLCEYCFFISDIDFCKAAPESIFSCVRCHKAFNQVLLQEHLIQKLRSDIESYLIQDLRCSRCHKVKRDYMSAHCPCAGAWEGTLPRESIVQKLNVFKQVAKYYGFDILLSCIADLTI

[2] = biological target: B2; test: as above; details: both partners purified

B1
binding result [1]: binds

B2
binding result [1]: binds

B3
binding result [2]: binds | binding result [1]: binds
